Target: the molecule itself
Test: SEC; size exclusion chromatography of His6-MBP-HAB1(171–511 aa) treated with 0.3 mM H2O2 for 30 min at 30°C; monomer to disulfide-linked dimer

B1: His6-MBP-HAB1(171–511 aa) wild type (domain or fragment, Arabidopsis thaliana, UniProt Q9CAJ0 171-511, looked up)
chain: NSNHLVKGRSVYELDCIPLWGTVSIQGNRSEMEDAFAVSPHFLKLPIKMLMGDHEGMSPSLTHLTGHFFGVYDGHGGHKVADYCRDRLHFALAEEIERIKDELCKRNTGEGRQVQWDKVFTSCFLTVDGEIEGKIGRAVVGSSDKVLEAVASETVGSTAVVALVCSSHIVVSNCGDSRAVLFRGKEAMPLSVDHKPDREDEYARIENAGGKVIQWQGARVFGVLAMSRSIGDRYLKPYVIPEPEVTFMPRSREDECLILASDGLWDVMNNQEVCEIARRRILMWHKKNGAPPLAERGKGIDPACQAAADYLSMLALQKGSKDNISIIVIDLKAQRKFKTRT
notes: HAB1 protein phosphatase 2C, Arabidopsis thaliana, phosphatase domain, residues 171-511; In some assays the protein was treated with 0.3 mM or 1 mM H2O2 (30 min, 30°C) beforehand; the treatment is told by the assay; After 0.3 mM H2O2 it is a mixture of monomers and disulfide-linked dimers (C186, C274), after 1 mM higher oligomers; also called HAB1 phosphatase domain; wild type HAB1; source: E. …
stoichiometry N: 2

From publication PMC4252038, “H2O2 Inhibits ABA-Signaling Protein Phosphatase HAB1” (PLoS ONE, 2014)
